In publication PMC10397247:

What was measured:
Test in all cases: two-hybrid library CCmax;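 note: natural log of median RNA to DNA barcode read ratio; higher means stronger binding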
4H3056-AA = biological target: T1, 4H3056-AA
T1 chain: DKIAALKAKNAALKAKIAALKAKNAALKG

4H3133-AA = biological target: T2, 4H3133-AA; settings: mean of both orientations
T2 chain: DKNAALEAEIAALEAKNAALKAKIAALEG

4H3162-AA = biological target: T3, 4H3162-AA; settings: mean of both orientations
T3 chain: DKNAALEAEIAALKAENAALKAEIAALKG

4H32-AA = biological target: T4, 4H32-AA; settings: mean of both orientations
T4 chain: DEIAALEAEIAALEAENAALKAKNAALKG

4H3378-AA = biological target: T5, 4H3378-AA; settings: mean of both orientations
T5 chain: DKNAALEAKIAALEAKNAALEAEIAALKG

4H340-AA = biological target: T6, 4H340-AA; settings: mean of both orientations
T6 chain: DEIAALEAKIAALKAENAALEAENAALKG

4H3413-AA = biological target: T7, 4H3413-AA; settings: mean of both orientations
T7 chain: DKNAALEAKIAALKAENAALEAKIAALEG

4H3588-AA = biological target: T8, 4H3588-AA; settings: mean of both orientations
T8 chain: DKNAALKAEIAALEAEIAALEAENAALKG

4H3590-AA = biological target: T9, 4H3590-AA
T9 chain: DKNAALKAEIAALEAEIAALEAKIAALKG

4H3606-AA = biological target: T10, 4H3606-AA; settings: mean of both orientations
T10 chain: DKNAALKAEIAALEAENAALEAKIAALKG

4H3631-AA = biological target: T11, 4H3631-AA; settings: mean of both orientations
T11 chain: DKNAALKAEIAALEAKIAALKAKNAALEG

4H3697-AA = biological target: T12, 4H3697-AA; settings: mean of both orientations
T12 chain: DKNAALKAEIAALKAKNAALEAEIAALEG

4H3718-AA = biological target: T13, 4H3718-AA; settings: mean of both orientations
T13 chain: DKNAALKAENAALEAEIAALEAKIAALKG

4H384-AA = biological target: T14, 4H384-AA; settings: mean of both orientations
T14 chain: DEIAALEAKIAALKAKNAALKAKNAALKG

4H3865-AA = biological target: T15, 4H3865-AA; settings: mean of both orientations
T15 chain: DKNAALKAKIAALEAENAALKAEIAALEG

4H697-AA = biological target: T16, 4H697-AA; settings: mean of both orientations
T16 chain: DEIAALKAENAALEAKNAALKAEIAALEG

4H982-AA = biological target: T17, 4H982-AA; settings: mean of both orientations
T17 chain: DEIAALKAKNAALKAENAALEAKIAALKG

Core_ININ-es_EEEE = biological target: T18, Core_ININ-es_EEEE; settings: mean of both orientations
T18 chain: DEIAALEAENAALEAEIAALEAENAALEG

Core_INNN-es_KEEK = biological target: T19, Core_INNN-es_KEEK; settings: mean of both orientations
T19 chain: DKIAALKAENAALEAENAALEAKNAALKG

P4 = biological target: T20, P4; settings: mean of both orientations
T20 chain: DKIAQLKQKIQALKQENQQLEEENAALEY

P4S = biological target: T21, P4S; settings: mean of both orientations
T21 chain: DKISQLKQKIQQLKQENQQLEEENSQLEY

DKIAALKAKNAALKAKIAALKAKNAALKG [4H3056-AA] gave an interaction score (4H3056-AA) of -1.79, an interaction score (4H3133-AA) of -0.786 and an interaction score (4H3162-AA) of -1.58. For the same binder, the interaction score (4H32-AA) was -1.08, the interaction score (4H3378-AA) was -1.09 and the interaction score (4H340-AA) was -1.52. It also gave an interaction score (4H3413-AA) of -0.103, an interaction score (4H3588-AA) of -0.439 and an interaction score (4H3590-AA) of -0.167. For the same binder, the interaction score (4H3606-AA) was 0.58, the interaction score (4H3631-AA) was -1.74 and the interaction score (4H3697-AA) was -0.53. It also gave an interaction score (4H3718-AA) of -0.69, an interaction score (4H384-AA) of -1.93 and an interaction score (4H3865-AA) of 0.0241. The interaction score (4H697-AA) was -1.44, the interaction score (4H982-AA) was -1.65 and the interaction score (Core_ININ-es_EEEE) was 1.52.

DEIAALEAKNAALKAKNAALKAENAALEG [Core_INNN-es_EKKE] showed an interaction score (Core_INNN-es_KEEK) of 1.91.

With DEIQQLEEEISQLEQKNSQLKEKNQQLKY [P3S] the interaction score (P4) was 0.472 and the interaction score (P4S) was 0.00696.
